In this series the test system is N.BstNBI nicking endonuclease. The experiment in a line: cleavage_in_vitro.

In turn, “CCTACGACTGGAACAGAAACACCTACGACTGGA / TCCAGTCGTAGGTGAGTCTGTTCCAGTCGTAGG [Duplex 6 T-1/B-6 2 mismatches]” yielded an activity (relative mass units) (same conditions) of 45.
Take “CCTACGACTGGAACAGTAACACCTACGACTGGA / CGTAGGTGAGTCTGTTCCAGTCGTAGG [Duplex 8g T-1g/B-7]”: the activity (relative mass units) (same conditions) came out at 20.8.
In the case of “CCTACGACTGGAACAGATTCACCTACGACTGGA / TCCAGTCGTAGGTGAGTCTGTTCCAGTCGTAGG [Duplex 3 T-1/B-3 1 mismatch]”, where the note is “same conditions”, the activity (relative mass units) turned out to be 66.7.
The same measure, in the same setting: for “CCTACGACTGGAACAATAAAACCTACGACTGGA / AGTCGTAGGTGAGTCTGTTCCAGTCGTAGG [Duplex 9d T-1d/B-2]” the value was 15.3; for “CCTACGACTGGAACAGTAACACCTACGACTGGA / AGTCGTAGGTGAGTCTGTTCCAGTCGTAGG [Duplex 8d T-1d/B-7]”, 29.2; for “CCTACGACTGGAACAGTAACACCTACGACTGGA / CCAGTCGTAGGTGAGTCTGTTCCAGTCGTAGG [Duplex 8b T-1b/B-7]”, 28.3.
Still for that read-out and setting: for “CCTACGACTGGAACAATAAAACCTACGACTGGA / GAGTCTGTTCCAGTCGTAGG [Duplex 9n T-1n/B-2]” the value was 14.3.
With “CCTACGACTGGAACAGACTCACCTACGACTGGA (double strand) [Duplex 1 T-1/B-1 perfect]”, where the note is “nicking coupled to Vent exo- extension, LC/MS of released fragment, Mg2+, trehalose, 60 C 1 h”, the activity (relative mass units) turned out to be 121.
As to “CCTACGACTGGAACAGTAACACCTACGACTGGA / GTGAGTCTGTTCCAGTCGTAGG [Duplex 8l T-1l/B-7]”, the activity (relative mass units) (same conditions) is 15.6.
“CCTACGACTGGAACAATAAAACCTACGACTGGA / CGTAGGTGAGTCTGTTCCAGTCGTAGG [Duplex 9g/9l T-1g/B-2]” had an activity (relative mass units) (duplex 9g, 9l printed with same strands gave 22.5) of 28.3.
Sequence “CCTACGACTGGAACAGTAACACCTACGACTGGA / GTCGTAGGTGAGTCTGTTCCAGTCGTAGG [Duplex 8e T-1e/B-7]” had an activity (relative mass units) (same conditions) of 14.6.
On the same count and under the same terms, for “CCTACGACTGGAACAGTAACACCTACGACTGGA / AGGTGAGTCTGTTCCAGTCGTAGG [Duplex 8j T-1j/B-7]” the value was 18.3; for “CCTACGACTGGAACAGTAACACCTACGACTGGA / GAGTCTGTTCCAGTCGTAGG [Duplex 8n T-1n/B-7]”, 12.5.
Still for that read-out and setting: for “CCTACGACTGGAACAGTAACACCTACGACTGGA / TGAGTCTGTTCCAGTCGTAGG [Duplex 8m T-1m/B-7]” the value was 18.3.
Still for that read-out and setting: for “CCTACGACTGGAACAATAAAACCTACGACTGGA / TGAGTCTGTTCCAGTCGTAGG [Duplex 9m T-1m/B-2]” the value was 13.5; for “CCTACGACTGGAACAGTAACACCTACGACTGGA / TAGGTGAGTCTGTTCCAGTCGTAGG [Duplex 8i T-1i/B-7]”, 14.9.
The sequence “CCTACGACTGGAACAATAAAACCTACGACTGGA / TCCAGTCGTAGGTGAGTCTGTTCCAGTCGTAGG [Duplex 2/9a T-1/B-2 5 mismatches]” had an activity (relative mass units) (duplex 2, repeat 9a 21.3) of 18.5.
For the setting “same conditions”, “CCTACGACTGGAACAATAAAACCTACGACTGGA / GTAGGTGAGTCTGTTCCAGTCGTAGG [Duplex 9h T-1h/B-2]” returned an activity (relative mass units) of 22.7.
“CCTACGACTGGAACAGTAACACCTACGACTGGA / GTAGGTGAGTCTGTTCCAGTCGTAGG [Duplex 8h T-1h/B-7]”: for the setting “same conditions”, the activity (relative mass units) was 12.3.
The same measure, in the same setting: for “CCTACGACTGGAACAGACACACCTACGACTGGA / TCCAGTCGTAGGTGAGTCTGTTCCAGTCGTAGG [Duplex 4 T-1/B-4 1 mismatch]” the value was 61.5.
As to “CCTACGACTGGAACAATAAAACCTACGACTGGA / TCGTAGGTGAGTCTGTTCCAGTCGTAGG [Duplex 9f/9k T-1f/B-2]”, for the setting “duplex 9f, 9k printed with same T strand gave 22.6”, the activity (relative mass units) was 15.9.
“CCTACGACTGGAACAGTAACACCTACGACTGGA / CAGTCGTAGGTGAGTCTGTTCCAGTCGTAGG [Duplex 8c T-1c/B-7]” had an activity (relative mass units) (same conditions) of 11.5.
On the same count and under the same terms, the same measure for “CCTACGACTGGAACAATAAAACCTACGACTGGA / CCAGTCGTAGGTGAGTCTGTTCCAGTCGTAGG [Duplex 9b T-1b/B-2]”: 17.8; for “CCTACGACTGGAACAATAAAACCTACGACTGGA / AGGTGAGTCTGTTCCAGTCGTAGG [Duplex 9j T-1j/B-2]”: 21.4.
Same read-out and setting: for “CCTACGACTGGAACAATAAAACCTACGACTGGA / CAGTCGTAGGTGAGTCTGTTCCAGTCGTAGG [Duplex 9c T-1c/B-2]” the value was 19.2; for “CCTACGACTGGAACAGTAACACCTACGACTGGA / TCGTAGGTGAGTCTGTTCCAGTCGTAGG [Duplex 8f T-1f/B-7]”, 17.8.
On the same count and under the same terms, for “CCTACGACTGGAACAGTCTCACCTACGACTGGA / TCCAGTCGTAGGTGAGTCTGTTCCAGTCGTAGG [Duplex 5 T-1/B-5 1 mismatch]” the value was 63.
Sequence “CCTACGACTGGAACAATAAAACCTACGACTGGA / GTCGTAGGTGAGTCTGTTCCAGTCGTAGG [Duplex 9e T-1e/B-2]” displayed an activity (relative mass units) (same conditions) of 14.
The same measure, in the same setting: for “CCTACGACTGGAACAATAAAACCTACGACTGGA / TAGGTGAGTCTGTTCCAGTCGTAGG [Duplex 9i T-1i/B-2]” the value was 23.9.
On the same count and under the same terms, the same measure for “CCTACGACTGGAACAGTAACACCTACGACTGGA / GGTGAGTCTGTTCCAGTCGTAGG [Duplex 8k T-1k/B-7]”: 19.3.
With “CCTACGACTGGAACAGTAACACCTACGACTGGA / TCCAGTCGTAGGTGAGTCTGTTCCAGTCGTAGG [Duplex 7/8a T-1/B-7 3 mismatches]”, the activity (relative mass units) (duplex 7, repeat 8a 23.4) worked out at 21.2.

(Values after patent US20030152952.)
